# Measured values as given in the RNAGym collection of RNA variant scans (doi:10.1073/pnas.2313332121).
# This sample holds only a part of the variants without activity.
# B1: TPR 5TU (parent)
# chain: GGAUCUUCUCGAUCUAACAAAAAAGACAAAUCUGCCACAAAGCUUGAGAGCAUCUUCGGAUGCAGAGGCGGCAGCCUUCGGUGGCGCGAUAGCGCCAACGUUCUCAACUAUGACACGCAAAACGCGUGCUCCGUUGAAUGGAGUUUAUCAUG
# Variants of: B1
# Assay: polymerase ribozyme fitness, log enrichment relative to wild type (log ratio); higher = more active; in vitro selection for triplet polymerase activity
# In short: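 For each subunit of a heterodimeric triplet polymerase ribozyme, a mutant library was built by PCR and transcribed, then taken through a single in vitro selection round in triplicate. Selection involved annealing to a biotinylated primer, the partner subunit and triplets, incubation frozen at −7 °C, gel excision of extended constructs, capture on streptavidin beads and RT-PCR. Genotypes were retained after Illumina sequencing of inputs and outputs only with ≥10 input reads and ≥1 read in each output. Fitness is defined as the logarithm of a genotype's enrichment relative to wild-type enrichment, using inverse-variance-weighted averages across replicates, with the logarithm taken to base 2.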
row,Variant,polymerase ribozyme fitness (log ratio)
1,C57A C85A A107G,≤ -4.2
2,G58A C87A A91C C99U,≤ -4.2
3,C57G G59A U78G G84A,≤ -4.2
4,C57A C93A,-2.04
5,G58C G143A,-0.724
6,U56A G80A U90A,≤ -4.2
7,U55G G92C,-0.157
8,U55G G92A,-3.13
9,G58A C149A,-3.67
10,C57G C93U A115U,-3.44
11,U56A C57A C85U C87U U144A U146G,≤ -4.2
12,C57A A91G U101A A142G,-4.08
13,G58A A89G G94A,-1.91
14,C57U A66G,-3.4
15,C57G G70A C87U C123A,≤ -4.2
16,U56G C85G A115U,-3.43
17,C57G G124U U148G,≤ -4.2
18,U55G G84A C118U,-0.685
19,C57G A73G C116U,-0.324
20,U56A G84U,-1.11
21,U56A G84C,-1.66

row,Variant,polymerase ribozyme fitness (log ratio)
1,C57U A97U,-1.22
2,C57U C125A,-0.844
3,C57G C125A,-0.508
4,G58A U90A C125G,≤ -4.2
5,U55G C93A A98U A142U,-3.92
6,C57A C85U G124U U130A,-2.9
7,U56A G81A,-0.577
8,C57A A121U,-0.0826
9,C57U C95A U109G,-0.696
10,G58C C85U G117U,-0.00983
11,U56C C79U,-1.8
12,G58C C96U,-1.02
13,U56A G88A,-3.78
14,C57A U101G,0.71
15,U56A C118G A150G,-2.41
16,C57A G59C A60G,0.42
17,G58A G71U,-0.673
18,U56G A91G,-3.24
19,U55G G80A C87U,-0.574
20,U56A C123U,0.128
21,C57U C87G G88U C95G C116U C123A U134C,≤ -4.2

row,Variant,polymerase ribozyme fitness (log ratio)
1,G58C A66C G67A A89C U111C C116A C129G U148A,≤ -4.2
2,U56A G83U,-0.976
3,C57A C72U C99A C103G G140C,≤ -4.2
4,U56A C105U C116G,-0.192
5,G58C A64C C69G C85U A110U U134G,≤ -4.2
6,C57A U146A,-0.0166
7,U56G A64U G81A G88A C114A A115U G141U,≤ -4.2
8,C57A G128C,-2.62
9,C57U C96U C103U G117U G136A G141U,≤ -4.2
10,C57U G83A C99A,-2.32
11,G58A A73U C96U,-0.178
12,U56A C93U A147G,-1.96
13,U56G A142U,-0.88
14,U56A G74A A138G,≤ -4.2
15,C57G A73C C87G A97G U101G U130C,≤ -4.2
16,G58A A107U G126U C149G,≤ -4.2
17,U56A G124C,-1.68
18,C57U C85U U102A C114A,-3.9
19,G58C C72A A110C A147G A150C,≤ -4.2
20,G58A C87G A142C,≤ -4.2
21,C57A U61G U78G G88A U148A,≤ -4.2

row,Variant,polymerase ribozyme fitness (log ratio)
1,C57U G117C A122G,0.204
2,U56G G58C U61A,-2.98
3,U56C C85G U135C A142U G152A,≤ -4.2
4,C57A C72G U77A C87A U127A G136A,≤ -4.2
5,C57U G84U G126C,-0.969
6,C57A G86U,-1.32
7,U55G U127G,-2.9
8,C57U C85U U146G,-1.44
9,U56A G58U C63A A115U C118U,-1.35
10,C57U G92A U104C U135C,≤ -4.2
11,U56A C93U U127C,-2.73
12,C57U C75U C123G U144C,-0.394
13,U56G G58A C63G U101G A120U,-2.56
14,G58A C99U,-0.207
15,U55G C87A C93A C99U U134A,≤ -4.2
16,U56G A60C G81A G94U A106G,-3.84
17,U56A C57U C96U,-0.285
18,U56C U78G C85U A89G,≤ -4.2
19,G58C C76G U77G,≤ -4.2
20,G58C C96U A150G,-0.919
21,C57A C96A,-0.383
